Test results: US20190270818A1 (Eli Lilly, published 2019)

What was measured:
[1] = biological target: T1, Human PD1-extracellular domain (ECD)-His (human, UniProt Q15116 25-167); test: SPR, Biacore 8K, 25° C., mAb captured on protein A, PD1-ECD-His as analyte, n=1
T1 construct: Expressed in CHO cells, purified by IMAC and size exclusion; also called human PD-1 ECD; human PD1-ECD-his
Description: (§1) The binding kinetics of an anti-human PD-1 agonist antibody of the invention to human and cynolmolgus monkey PD-1 ECDs may be determined by use of a surface plasmon resonance biosensor such as BIAcore® 2000, BIAcore® 3000, BIAcore® 8K, or a BIAcore® T100 (GE Healthcare, Piscataway, N.J.). Briefly described, a BIAcore® 8K instrument is used to measure the binding kinetics for Antibody 1 to human and cynomolgus monkey PD1-extracellular domain (ECD)-His via surface plasmon resonance (SPR) at 25° C. Samples are dissolved in 1×HBS-EP+ running buffer (Teknova cat. # H8022) and a protein A coupled CMS Series S sensor chip (GE Healthcare Cat #29139131-AA) is utilized to capture mAb. Human and cynomolgus monkey PD1-ECD proteins which contain a C-terminal 8× histidine tag are expressed in CHO cells and purified by nickel charged IMAC followed by size exclusion.
(§2) Binding is evaluated using multiple analytical cycles. Each cycle is performed at 25° C. at a flow rate of 10 μl/minute for mAb capture and 30 μl/minute for ligand association and dissociation. Each cycle consists of the following steps: injection of mAb at 2 μg/ml for 60 s contact time targeting a capture level of approximately 220RUs on flow cell 2, injection of 150 seconds of human or cynomolgus PD1-ECD-his (concentration range of 400 nM to 1.6 nM by four fold serial dilution) followed by 600 second dissociation phase, and regeneration using 10 mM glycine hydrochloride, pH 1.5 over a 30 second contact time. Association (i.e., Kon) and dissociation rates (i.e., Koff) for each cycle are evaluated using standard double referencing and fit to “1:1 (Langmuir) binding” model in the Biacore 8K evaluation in parallel kinetics batch mode. The affinity (KD) is calculated from the binding kinetics according to the relationship KD=Koff/Kon.

[2] = biological target: T2, Cynomolgus monkey PD1-extracellular domain (ECD)-His (cynomolgus monkey); test: as above
T2 construct: Expressed in CHO cells, purified by IMAC and size exclusion; also called cynomolgus monkey PD-1 ECD; cynomolgus PD1-ECD-his
T2 chain: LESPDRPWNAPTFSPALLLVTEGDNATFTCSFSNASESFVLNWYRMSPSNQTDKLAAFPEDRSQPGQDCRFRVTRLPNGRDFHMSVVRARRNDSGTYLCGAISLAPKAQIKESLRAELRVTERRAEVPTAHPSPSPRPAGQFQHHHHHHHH
Description: as §1, §2

[3] = biological target: T3, Human PD-1 (cell membrane expressed) (human, UniProt Q15116 25-288); test: flow cytometry on CHO cells expressing human PD-1, GMFI, 4-parameter fit, average
T3 construct: no cleavage site is stated; also called hPD-1; CD279
T3 sequence (Q15116 25-288 limits assumed): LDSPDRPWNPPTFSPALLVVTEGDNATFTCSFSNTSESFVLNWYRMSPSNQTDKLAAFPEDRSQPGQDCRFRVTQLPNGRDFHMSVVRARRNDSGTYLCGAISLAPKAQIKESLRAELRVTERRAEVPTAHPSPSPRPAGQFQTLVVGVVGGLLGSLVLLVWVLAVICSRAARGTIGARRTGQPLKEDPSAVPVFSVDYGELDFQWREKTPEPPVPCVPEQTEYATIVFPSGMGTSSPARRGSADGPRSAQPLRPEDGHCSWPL
Source text: (§3) The ability of the anti-human PD-1 agonist antibodies disclosed herein to bind to cell surface human or cynomolgus monkey PD-1 can be measured using a flow cytometric assay. Human and cynomolgus monkey PD-1 (i.e., as shown in SEQ ID NOs: 13 and 15, respectively) expressing stable cells are generated by transfecting human or cynomolgus monkey PD-1 plasmid DNA into Chinese Hamster Ovary cells (CHO-kl; Lonza) using an electroporation system (Gene Pulser Xcell; BioRad) according to established protocols. Stable cells are selected from single isolated cells using 500 μg/mL G418 (Thermo Scientific) in culture medium. For flow cytometry, the cells are transferred into a 96-well V-bottom plate at density of 1×10⁵ cells/well. The cells are washed with 1×FACS buffer (Becton Dickinson #554656). Antibody 1, or control human IgG1 (diluted in FACS buffer in a three-fold 12-point titration of the antibodies, starting at 100 micrograms/mL) are added (in 100 microliters) and cells are incubated at 4° C. for 30 minutes.
(§4) After washing twice in FACS buffer, live/dead cell staining is performed using SytoxBlue (Invitrogen, #S34857) per manufacturer's protocol. […] Flow cytometry data is analyzed using FlowJo software. Geometric Mean Fluorescence Intensity (GMFI) values are used to calculate relative EC₅₀ based on 4-parameter logistic regression.

[4] = biological target: T1, Human PD1-extracellular domain (ECD)-His; test: SPR, Biacore T200, 37° C., mAb captured, PD1-ECD-His as analyte, mean ± SD, n=9
Description: (§5) In subsequent experiments, Biacore was used to measure the binding kinetics for Antibody 1 to human and cynomolgus monkey PD1-extracellular domain (ECD)-His via surface plasmon resonance (SPR) at 37° C. by BIAcore® T200. For analyses at 37° C., binding is evaluated using multiple analytical cycles. Each cycle is performed at 37° C. at a flow rate of 10 μl/minute for mAb capture and 100 μl/minute for ligand association and dissociation. Each cycle consists of the following steps: injection of mAb at 2.5 μg/ml targeting a capture level of approximately 220RUs on flow cell 2, injection of 180 seconds of human or cynomolgus PD1-ECD-his (concentration range of […] to 1.6 nM by 2-fold serial dilution) followed by 600 second dissociation phase, and regeneration using 10 mM glycine hydrochloride, pH 1.5 over a 30 second contact time. Kon, Koff, and KD are calculated essentially as described above. Affinity data is reported as average and standard deviations determined from triplicate measurements in three independent experiments (mean±SD, n=9).

[5] = biological target: T2, Cynomolgus monkey PD1-extracellular …; test: as above
Description: as §5

[6] = biological target: T3, Human PD-1 (cell membrane expressed); test: cell-based or functional assay
[7] = biological target: T1, Human PD1-extracellular domain (ECD)-His; test: SPR, Biacore T200, 37° C., mAb captured, PD1-ECD-His as analyte, mean ± SD, n=9; 37° C. (n=9)
Description: as §5

[8] = biological target: T4, Cynomolgus monkey PD-1 (cell membrane expressed) (cynomolgus monkey, UniProt Q15116 25-288 (human entry)); test: flow cytometry on CHO cells expressing cynomolgus monkey PD-1, GMFI, 4-parameter fit, average
T4 construct: Stably expressed on CHO-K1 cells; no cleavage site is stated; also called cyno PD-1; cynomolgus PD-1
T4 chain: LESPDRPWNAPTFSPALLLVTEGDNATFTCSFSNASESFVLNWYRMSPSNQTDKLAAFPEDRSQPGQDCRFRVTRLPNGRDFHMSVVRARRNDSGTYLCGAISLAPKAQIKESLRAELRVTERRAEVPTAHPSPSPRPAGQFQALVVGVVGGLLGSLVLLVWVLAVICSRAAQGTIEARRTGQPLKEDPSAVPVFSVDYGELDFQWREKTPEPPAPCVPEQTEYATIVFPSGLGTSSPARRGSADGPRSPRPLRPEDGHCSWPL
Source text: as §3, §4

B1: Antibody 1 (antibody, human IgG1, kappa, V domains shown)
VH: QVQLVQSGAEVKKPGASVKVSCKVSGYSLSKYDMSWVRQAPGKGLEWMGIIYTSGYTDYAQKFQGRVTMTEDTSTDTAYMELSSLRSEDTAVYYCATGNPYYTNGFNSWGQGTLVTVSS
VL: DIQMTQSPSSLSASVGDRVTITCQASQSPNNLLAWYQQKPGKAPKLLIYGASDLPSGVPSRFSGSGSGTDFTLTISSLQPEDFATYYCQNNYYVGPVSYAFGGGTKVEIKR
notes: Humanized IgG1 with kappa light chain; also called anti-human PD-1 agonist antibody; anti-human PD-1 agonist IgG1 antibody
- Kd [1]: 1 nM
- koff [1]: 0.00017 s⁻¹
- kon [1]: 170000 M⁻¹ s⁻¹
- Kd [2]: 4.7 nM
- koff [2]: 0.0011 s⁻¹
- kon [2]: 240000 M⁻¹ s⁻¹
- EC50 [3]: 1.3 µg/mL
- Kd [4]: 2.29 nM
- koff [4]: 0.000701 s⁻¹
- Kd [5]: 9.51 nM
- koff [5]: 0.00489 s⁻¹
- kon [5]: 519000 M⁻¹ s⁻¹
- inhibition of human PD-1 NFAT-luciferase reporter cell activity (IC50) [6]: 0.0752 µg/mL
- kon [7]: 307000 M⁻¹ s⁻¹
- EC50 [8]: 1.09 µg/mL
